From patent US20230193255

Assays:
[1] = target: TEV cleavage site ENLYFQS
[2] = target: Variant TEV cleavage site ENVYFQS
[3] = target: Variant TEV cleavage site ENLFFQS

B1: TEV protease S219V mutant (protein)
chain: ESLFKGPRDYNPISSTICHLTNESDGHTTSLYGIGFGPFIITNKHLFRRNNGTLLVQSLHGVFKVKNTTTLQQHLIDGRDMIIIRMPKDFPPFPQKLKFREPQREERICLVTTNFQTKSMSSMVSDTSCTFPSSDGIFWKHWIQTKDGQCGSPLVSTRDGFIVGIHSASNFTNTNNYFTSVPKNFMELLTNQEAQQWVSGWRLNADSVLWGGHKVFMVKPEEPFQPVKEATQLMN
efficiency of cleavage by TEV at the TCS [1]: considered to be 100% efficient
efficiency of cleavage by TEV at the TCS [2]: found to exhibit 1% efficiency
efficiency of cleavage by TEV at the TCS [3]: found to exhibit 10% efficiency
